This assay has as its target αvβ8 integrin on β8-transfected SW480 cells and β8-transfected SNB-19 cells (UniProt P26012 43-769; P06756 31-1048). Kind of assay: cell-based or functional assay.

Chain of αvβ8 integrin on β8-transfected SW480 cells and β8-transfected SNB-19 cells (P26012 43-769, chain 1 of 2): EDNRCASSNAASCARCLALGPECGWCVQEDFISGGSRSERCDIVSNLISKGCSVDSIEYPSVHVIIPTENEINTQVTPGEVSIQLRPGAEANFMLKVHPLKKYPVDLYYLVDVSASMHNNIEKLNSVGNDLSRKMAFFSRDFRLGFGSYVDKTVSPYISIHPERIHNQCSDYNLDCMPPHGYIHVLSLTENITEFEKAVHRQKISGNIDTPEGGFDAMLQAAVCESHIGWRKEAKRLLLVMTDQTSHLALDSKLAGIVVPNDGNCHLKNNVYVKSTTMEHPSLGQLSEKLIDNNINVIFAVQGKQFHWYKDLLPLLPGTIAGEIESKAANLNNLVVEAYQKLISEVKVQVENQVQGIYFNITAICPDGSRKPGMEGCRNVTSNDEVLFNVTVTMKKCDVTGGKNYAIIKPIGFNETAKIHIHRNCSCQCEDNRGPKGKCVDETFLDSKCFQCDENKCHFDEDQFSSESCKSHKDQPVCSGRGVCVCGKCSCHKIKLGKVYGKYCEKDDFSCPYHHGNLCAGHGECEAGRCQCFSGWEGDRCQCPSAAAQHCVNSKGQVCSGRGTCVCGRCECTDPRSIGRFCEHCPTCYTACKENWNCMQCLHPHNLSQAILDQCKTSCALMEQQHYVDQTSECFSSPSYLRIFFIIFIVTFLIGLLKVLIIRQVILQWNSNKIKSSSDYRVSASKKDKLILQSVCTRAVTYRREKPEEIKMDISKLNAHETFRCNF
Chain of αvβ8 integrin on β8-transfected SW480 cells and β8-transfected SNB-19 cells (P06756 31-1048, chain 2 of 2): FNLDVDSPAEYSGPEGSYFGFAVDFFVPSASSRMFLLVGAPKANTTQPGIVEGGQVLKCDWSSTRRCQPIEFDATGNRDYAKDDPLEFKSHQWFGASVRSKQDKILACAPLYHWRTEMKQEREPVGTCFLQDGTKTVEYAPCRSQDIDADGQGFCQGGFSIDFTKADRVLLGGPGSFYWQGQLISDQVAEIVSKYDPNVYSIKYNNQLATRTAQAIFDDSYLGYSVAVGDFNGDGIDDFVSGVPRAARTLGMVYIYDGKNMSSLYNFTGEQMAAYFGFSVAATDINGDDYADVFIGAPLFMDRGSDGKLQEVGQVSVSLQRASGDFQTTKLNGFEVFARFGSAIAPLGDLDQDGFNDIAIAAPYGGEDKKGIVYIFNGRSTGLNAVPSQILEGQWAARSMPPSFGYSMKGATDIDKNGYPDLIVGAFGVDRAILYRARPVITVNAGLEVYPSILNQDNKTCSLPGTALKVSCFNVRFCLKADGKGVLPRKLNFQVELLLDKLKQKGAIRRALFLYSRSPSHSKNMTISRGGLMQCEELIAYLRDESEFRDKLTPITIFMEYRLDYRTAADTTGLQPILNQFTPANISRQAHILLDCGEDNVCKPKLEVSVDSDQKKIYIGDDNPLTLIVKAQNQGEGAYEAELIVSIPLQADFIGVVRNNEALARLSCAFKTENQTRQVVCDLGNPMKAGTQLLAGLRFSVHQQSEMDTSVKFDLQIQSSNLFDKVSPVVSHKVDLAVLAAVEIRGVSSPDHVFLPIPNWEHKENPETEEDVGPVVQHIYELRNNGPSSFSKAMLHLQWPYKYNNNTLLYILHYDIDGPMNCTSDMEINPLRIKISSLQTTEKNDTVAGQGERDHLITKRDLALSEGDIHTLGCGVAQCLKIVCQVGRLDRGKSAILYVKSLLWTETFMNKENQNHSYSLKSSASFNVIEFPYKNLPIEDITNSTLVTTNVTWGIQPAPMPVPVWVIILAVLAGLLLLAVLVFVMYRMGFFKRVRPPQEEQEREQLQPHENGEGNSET

B1: ADWA-11 (antibody, V domains shown)
VH: EVQLQQSGAELVRPGAFVKLSCKASGFNIKDYYMNWVLQRPEQGLEWIGWIDPDNGNTIYDPKFQGKASITADTSSNTAYLQLSSLTSEDTAVYYCARRLLMDYWGQGTSVTVSS
VL: DIVMTQAAPSVPVTPGESVSISCRSTKSLLHFNGNTYLFWFLQRPGQSPQRLIYYMSNLASGVPDRFSGRGSGTDFTLRISRVEAEDVGVYYCMQSLEYPFTFGTGTKLEIK
B1: the “IC50 for inhibiting TGFβ activation” value was under 5 nM.
